One molecule from patent US20240192201, “BRAIN NATRIURETIC PEPTIDE APTAMER FLUORESCENCE DETECTION DEVICE BASED ON SMART PHONE AND SENSING METHOD OF SAME” (TianJin University, published 2024) can be followed below.

This data set deals with BNP (brain natriuretic peptide) (UniProt P16860 P16860:103-134). The data set can be described thus: FRET recovery from carboxylated graphene oxide quencher (40 ug/ml), 100 nmol/L aptamer, pH 7.2-7.4, room temperature, 35 min. The note with it: label: 5'-FAM. An excerpt:
The signal response relationship between BNP concentration and fluorescence intensity obtained by detecting BNP in the present invention, its specific detection steps are as follows: [0080] (1) Blank control experiment: individually detect the fluorescence intensity of 100 nmol/L aptamer solution, and set the excitation wavelength as 492 nm, the emission wavelength as 519 nm, and the emission spectrum detection range as 505-610 nm, then use the obtained results as controls. [0081] (2) Mix 100 nmol/L of aptamer solution with 40 ug/ml of carboxylated graphene oxide solution by equal volume, and control the pH value of the solution at 7.2-7.4, and then leave it at room temperature for about 20 min. Then add BNP solution having a series of concentration gradients, respectively, leave it at room temperature for about 35 min, next take out an appropriate amount of mixed solution for fluorescence detection, and record fluorescence spectra at different concentrations. […] With the increase of the BNP concentration, the fluorescence intensity of the solution gradually increases. [0082]

BNP (brain natriuretic peptide), sequence (P16860 103-134, one chain of several): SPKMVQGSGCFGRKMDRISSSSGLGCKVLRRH

B1: FAM-labelled BNP aptamer (ssDNA)
DNA: TTTTTTTATACGGGAGCCAACACCACCTCTCACATTATATTGTGAATACTTCGTGCTGTTTAGAGCAGGTGTGACGGAT
For B1, the binding result is “binds”.
